The chains are these.
B1: library; a variant is named by its letters at N, in order (parent)
chain: ACATTTGTTGATACAACCATAAAATGATAATTACACCCATAAATTGATAATTATCACACCCANNNNNNNNNNNNNNCTCTGATCATAGTCAGACCAACATTGCTACGACCCGTATTCGCACCGACAC

The variants in series [1] derive from B1. The experiment in a line: relative integration efficiency (T-RL orientation) vs wild-type transposon end (log2 (normalized fold change)); transposon end mutated: right end (5 bp flank + 75 bp right end); higher = more efficient transposition. The following applies: with VchCAST RNA-guided transposition machinery (E. coli BL21(DE3) host, lacZ target). As for the experimental part: (§1)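 Pooled, barcoded VchCAST (Tn6677) mini-transposon donor libraries; each variable transposon-end sequence sits in a fixed pDonor mini-transposon context (10-bp barcode and cargo not included). Left- or right-end libraries were co-transformed with pEffector (TniQ-Cascade, TnsABC, lacZ crRNA, T7, 0.1 mM IPTG) into E. coli BL21(DE3) and grown 18 h at 37 C. T-LR and T-RL junction amplicons were sequenced; output/input barcode fold change was normalised to the mean of four wild-type barcodes and log2-transformed. Two biological replicates; zero-count/undetected variants carry floor values (-10 / -15), censored here. Barcode uncoupling by PCR recombination adds noise.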

The variants in series [2] derive from B1. The experiment in a line: relative integration efficiency (T-LR orientation) vs wild-type transposon end (log2 (normalized fold change)); transposon end mutated: right end (5 bp flank + 75 bp right end); higher = more efficient transposition. The following applies: with VchCAST RNA-guided transposition machinery (E. coli BL21(DE3) host, lacZ target). Here is the method: as §1

± gives the standard deviation of the averaged measurements.

In the case of ATTTAACTATAACG A58C, the “relative integration efficiency (log2)” value in series [1] was -0.52 ± 0.37; in series [2] it was 2.86 ± 0.073.
Take ATTTAACTATAACG A35C: the “relative integration efficiency (log2)” value was -0.737 ± 0.15 in series [1] and 2.11 ± 0.15 in series [2].
For ATTTAACTATAACG A35T the same measures were -1 ± 0.29 and 2.07 ± 0.25.
For ATTTAACTATAACG T9C the same measures were -0.756 ± 0.26 and 2.493 ± 0.0031.
The like results for ATTTAACTATAACG T9G were, in that order, -0.534 ± 0.082 and 2.39 ± 0.12.
As for ATTTAACTATAACG T9A, the results for the “relative integration efficiency (log2)” value in series [1] and in series [2] were -0.86 ± 0.087 and 2.15 ± 0.18, respectively.
For TATTAAGATATTGC the same measures were -0.535 ± 0.084 and 1.66 ± 0.11.
For ATTTAACTATAACG C55T the same measures were -1.15 ± 0.35 and 2.56 ± 0.14.
The like results for ATTTAACTATAACG C55G were, in that order, -1.37 ± 0.28 and 2.381 ± 0.011.
On to ATTTAACTATAACG C55A, for which the “relative integration efficiency (log2)” value in series [1] was -1.63 ± 0.35; in series [2] it was 2.34 ± 0.071.
The like results for TGAATTGATATTGC were, in that order, -0.596 ± 0.095 and 1.91 ± 0.29.
For ATTTAACTATAACG C34A the same measures were -1.12 ± 0.27 and 2.11 ± 0.056.
With ATTTAACTATAACG C34G, the “relative integration efficiency (log2)” value in series [1] is -1.76 ± 0.18; in series [2] it was 1.73 ± 0.16.
The like results for ATTTAACTATAACG C57A were, in that order, -0.68 ± 0.085 and 2.48 ± 0.17.
Consider ATTTAACTATAACG C57G, for which the “relative integration efficiency (log2)” value in series [1] was -0.953 ± 0.42; in series [2] it was 2.5 ± 0.16.
The like results for ATTTAACTATAACG T20G were, in that order, -2 ± 0.4 and 0.721 ± 0.045.
For ATTTAACTATAACG T20C the same measures were -1.47 ± 0.3 and 1.3 ± 0.48.
As for ATTTAACTATAACG T20A, the “relative integration efficiency (log2)” value in series [1] is -1.07 ± 0.11; in series [2], 2.04 ± 0.098.
For ATTTAACTATAACG A50G the same measures were -1.62 ± 0.3 and 2.18 ± 0.28.
For ATTTAACTATAACG A50T, the results for the “relative integration efficiency (log2)” value in series [1] and in series [2] were -1.29 ± 0.33 and 2.34 ± 0.11, respectively.
As to ATTTAACTATAACG A50C, the “relative integration efficiency (log2)” value in series [1] was -1.36 ± 0.36; in series [2], 2.44 ± 0.1.
Regarding ATTTAACTATAACG T31G, the “relative integration efficiency (log2)” value in series [1] is -1.44 ± 0.31; in series [2], 2.54 ± 0.17.
The like results for ATTTAACTATAACG T31A were, in that order, -1.32 ± 0.36 and 2.39 ± 0.16.
Consider ATTTAACTATAACG T31C, for which the entries for the “relative integration efficiency (log2)” value in series [1] and in series [2] were -0.932 ± 0.22 and 2.62 ± 0.071, respectively.
For the variant ATTTAACTATAACG A27T, the “relative integration efficiency (log2)” value was -1.93 ± 0.43 in series [1] and 1.735 ± 0.0049 in series [2].
Turning to ATTTAACTATAACG A27C, the “relative integration efficiency (log2)” value in series [1] was -1.49 ± 0.28; in series [2], 1.82 ± 0.022.
With ATTTAACTATAACG A27G, the “relative integration efficiency (log2)” value in series [1] is -1.43 ± 0.34; in series [2], 2.14 ± 0.29.
The like results for ATTTAACTATAACG C61A were, in that order, -0.657 ± 0.15 and 2.0647 ± 0.00092.
The like results for ATTTAACTATAACG C61G were, in that order, -0.633 ± 0.14 and 2.57 ± 0.16.
Turning to ATTTAACTATAACG, the results for the “relative integration efficiency (log2)” value in series [1] and in series [2] were -0.618 ± 0.17 and 2.52 ± 0.22, respectively.
For ATTTAACTATAACG A21T the same measures were -0.978 ± 0.093 and 2 ± 0.062.
Regarding ATTTAACTATAACG A21C, the “relative integration efficiency (log2)” value in series [1] was -1.05 ± 0.21; in series [2] it was 1.892 ± 0.013.
Consider ATTTTTGATATTGC, for which the results for the “relative integration efficiency (log2)” value in series [1] and in series [2] were -0.244 ± 0.095 and 1.64 ± 0.1, respectively.
For TTAATTGATATTGC the same measures were -0.072 ± 0.011 and 0.636 ± 0.14.
The like results for ATTTAACTATAACG G46T were, in that order, -1.25 ± 0.4 and 1.87 ± 0.23.
Consider ATTTAACTATAACG G46C, for which the “relative integration efficiency (log2)” value in series [1] is -1.79 ± 0.26; in series [2], 1.05 ± 0.12.
For ATTTAACTATAACG G46A the same measures were -1.36 ± 0.26 and 2.007 ± 0.0045.

The values above are taken from the supplement of paper PMC10201428.
